Data: PMC6978808, “In Situ Structure of an Intact Lipopolysaccharide-Bound Bacterial Surface Layer” (Cell, 2020)
Values joined by “and” are separate entries in the source; they are usually repeats but may differ in a detail not shown here. Equal values may be shown once.

Experiments:
[1] = molecular target: the molecule itself; test: cryo-EM structure; single-particle cryo-EM of the purified RsaANTD:PS complex, 3.7 Å; PS and Ca2+ bound
[2] = molecular target: the molecule itself; test: native MS; RsaANTD:PS sample after removal of Ca2+ on Zeba micro spin desalting columns
[3] = molecular target: the molecule itself; test: native MS; purified RsaANTD:PS complex with Ca2+; Q-Exactive UHMR; tandem MS (HCD 220 V) to assign the oligomers

B1: N-terminal domain of RsaA (RsaANTD) (domain or fragment, Caulobacter crescentus)
chain: AYTTAQLVTAYTNANLGKAPDAATTLTLDAYATQTQTGGLSDAAALTNTLKLVNSTTAVAIQTYQFFTGVAPSAAGLDFLVDSTTNTNDLNDAYYSKFAQENRFINFSINLATGAGAGATAFAAAYTGVSYAQTVATAYDKIIGNAVATAAGVDVAAAVAFLSRQANIDYLTAFVRANTPFTAAADIDLAVKAALIGTILNAATVSGIGGYATATAAMINDLSDGALSTDNAAGVNLFTAYPSSGVSGSEN
notes: S-layer protein RsaA of Caulobacter crescentus (1026 residues), N-terminal domain; the introduction defines RsaANTD as residues 1-249; residues 2-243 are built in the cryo-EM model; Cleavage by TEV protease after Gln would leave Glu-Asn-Leu-Tyr-Phe-Gln; also called inner domain of the S-layer; source: C. crescentus rsaATEV250 strain
- stoichiometry N [1]: 21 and 20
- stoichiometry N [2]: 4
- stoichiometry N [3]: 2
